In article PMC6857237:

Key:
[1] = biological target: Olfm1^BMY (olfactomedin-1 natural short isoform BMY, residues 17–153), disulfide-linked tetramer (mouse (Mus musculus)); assay: non-reducing SDS-PAGE; Coomassie-stained SDS-PAGE of purified protein with and without DTT; covalent (disulfide-linked) oligomeric state
[2] = biological target: Olfm1^BMY (olfactomedin-1 natural short isoform BMY, residues 17–153), disulfide-linked tetramer (mouse (Mus musculus)); assay: SEC-MALS; analytical Superdex200 Increase 10/300, room temperature, SEC buffer (150 mM NaCl, 2 mM CaCl2, 20 mM HEPES pH 7.5), 0.5 mL/min; aldolase as calibration standard
[3] = biological target: Olfm1^BMY (olfactomedin-1 natural short isoform BMY, residues 17–153), disulfide-linked tetramer (mouse (Mus musculus)); assay: SAXS; ESRF BM29, 0.615 mg/mL in SEC buffer (150 mM NaCl, 2 mM CaCl2, 20 mM HEPES pH 7.5), 277 K; mass from I0

Measured: stoichiometry N

Olfm1^BMY (olfactomedin-1 natural short isoform BMY, residues 17–153), disulfide-linked tetramer (natural protein), sequence (O88998 17-485): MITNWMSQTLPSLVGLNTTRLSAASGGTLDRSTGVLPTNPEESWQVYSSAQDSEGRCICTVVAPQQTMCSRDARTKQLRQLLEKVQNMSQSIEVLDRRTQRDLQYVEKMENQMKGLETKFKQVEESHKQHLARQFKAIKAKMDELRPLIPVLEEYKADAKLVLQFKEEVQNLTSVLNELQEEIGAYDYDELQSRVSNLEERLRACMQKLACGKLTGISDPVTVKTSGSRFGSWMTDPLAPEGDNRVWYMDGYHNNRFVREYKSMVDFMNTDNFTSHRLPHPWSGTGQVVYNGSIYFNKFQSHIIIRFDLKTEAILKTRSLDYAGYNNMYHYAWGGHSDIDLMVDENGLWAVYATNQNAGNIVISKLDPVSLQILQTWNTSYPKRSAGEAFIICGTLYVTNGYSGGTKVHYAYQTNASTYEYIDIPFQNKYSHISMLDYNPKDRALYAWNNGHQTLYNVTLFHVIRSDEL

Olfm1^BMY (olfactomedin-1 natural short isoform BMY, residues 17–153), disulfide-linked tetramer (natural protein)
4: all assays above
